These results are taken from patent publication US20250388669A1 (published 2025).

The target of one assay is T1, CD137 (UniProt Q07011 24-186, limits assumed).
T1 construct: also called 4-1BB
The assay can be described thus: FCM or ELISA (graded summary table). (In an ELISA, binding on a coated surface is turned into a signal by an enzyme label.)

In another assay the target is T2, CD19 (UniProt P15391 20-556, limits assumed).
T2 construct: whole, on cells
T2 sequence (looked up): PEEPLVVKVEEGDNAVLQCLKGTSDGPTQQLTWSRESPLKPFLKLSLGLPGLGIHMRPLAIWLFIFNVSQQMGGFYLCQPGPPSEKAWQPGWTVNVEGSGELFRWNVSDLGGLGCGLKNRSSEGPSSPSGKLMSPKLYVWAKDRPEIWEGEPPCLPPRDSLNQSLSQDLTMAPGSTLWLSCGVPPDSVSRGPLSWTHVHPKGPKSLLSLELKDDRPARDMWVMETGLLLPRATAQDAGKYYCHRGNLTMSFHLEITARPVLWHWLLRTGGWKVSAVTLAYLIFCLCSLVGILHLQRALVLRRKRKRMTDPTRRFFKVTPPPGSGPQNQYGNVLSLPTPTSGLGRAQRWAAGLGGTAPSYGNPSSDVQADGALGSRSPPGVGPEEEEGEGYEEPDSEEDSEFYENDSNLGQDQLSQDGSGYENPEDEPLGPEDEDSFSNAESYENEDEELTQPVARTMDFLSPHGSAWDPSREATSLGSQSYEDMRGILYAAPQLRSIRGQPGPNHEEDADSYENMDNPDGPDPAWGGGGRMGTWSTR
Put plainly: FCM or ELISA (graded summary table).

B1: Ly1966 (other)
chain 1: QVQLQQSGAELVRPGSSVKISCKASGYAFSSYWMNWVKQRPGQGLEWIGQIWPGDGDTNYNGKFKGKATLTADESSSTAYMQLSSLASEDSAVYFCARRETTTVGRYYYAMDYWGQGTTVTVSSASTKGPSVFPLAPSSKSTSGGTAALGCLVKDYFPEPVTVSWNSGALTSGVHTFPAVLQSSGLYSLSSVVTVPSSSLGTQTYICNVNHKPSNTKVDKKVEPKSCGGGGSGGGGSGGGGSGGGGSEVQLVESGGGLVQPGGSLRLSCAASGFTFSTYAMNWVRQAPGKGLEWVGRIRSKYNNYATYYADSVKGRFTISRDDSKNSLYLQMNSLKTEDTAVYYCVRHGNFGNSYVSWFAYWGQGTLVTVSSGGGGSDKTHTCPPCPAPEAAGPSVFLFPPKPKDTLMISRTPEVTCVVVDVSHEDPEVKFNWYVDGVEVHNAKTKPREEQYNSTYRVVSVLTVLHQDWLNGKEYKCKVSNKALPAPIEKTISKAKGQPREPQVYTLPPSREEMTKNQVSLWCLVKGFYPSDIAVEWESNGQPENNYKTTPPVLDSDGSFFLYSKLTVDKSRWQQGNVFSCSVMHEALHNHYTQKSLSLSPGGGGGSGGGGSGGGGSGGGGSQVQLVQSGAEVKKPGASVKVSCKASGYTFAGFEMHWVRQAPGQGLEWMGAIDPKTGGTDYNQKFKDRVTMTRDTSISTAYMELSRLRSDDTAVYYCARDLGYFDVWGQGTLVTVSS
chain 2: QVQLQQSGAELVRPGSSVKISCKASGYAFSSYWMNWVKQRPGQGLEWIGQIWPGDGDTNYNGKFKGKATLTADESSSTAYMQLSSLASEDSAVYFCARRETTTVGRYYYAMDYWGQGTTVTVSSASTKGPSVFPLAPSSKSTSGGTAALGCLVKDYFPEPVTVSWNSGALTSGVHTFPAVLQSSGLYSLSSVVTVPSSSLGTQTYICNVNHKPSNTKVDKKVEPKSCGGGGSGGGGSGGGGSGGGGSQAVVTQEPSLTVSPGGTVTLTCRSSTGAVTTSNYANWVQQKPGQAPRGLIGGTNKRAPWTPARFSGSLLGGKAALTITGAQAEDEADYYCALWYSNLWVFGGGTKLTVLGGGGSDKTHTCPPCPAPEAAGPSVFLFPPKPKDTLMISRTPEVTCVVVDVSHEDPEVKFNWYVDGVEVHNAKTKPREEQYNSTYRVVSVLTVLHQDWLNGKEYKCKVSNKALPAPIEKTISKAKGQPREPQVYTLPPSREEMTKNQVSLSCAVKGFYPSDIAVEWESNGQPENNYKTTPPVLDSDGSFFLVSKLTVDKSRWQQGNVFSCSVMHEALHNRFTQKSLSLSPGGGGGSGGGGSGGGGSGGGGSDIQMTQSPSSLSASVGDRVTITCRASQDIRSNLNWYQQKPGGAVKLLIYYTSRLHSGVPSRFSGSGSGTDYTLTISSLQPEDFATYFCQQSEKLPRTFGGGTKVEIR
light: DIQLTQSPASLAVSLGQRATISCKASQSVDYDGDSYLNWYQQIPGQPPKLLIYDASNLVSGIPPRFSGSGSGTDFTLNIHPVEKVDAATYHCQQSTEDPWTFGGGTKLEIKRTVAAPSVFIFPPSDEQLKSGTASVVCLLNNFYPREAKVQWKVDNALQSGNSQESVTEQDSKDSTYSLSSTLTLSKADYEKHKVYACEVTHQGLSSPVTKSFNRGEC
notes: Tri-specific antibody CD19 (two Fabs) / CD3 (central Fv) / CD137 (terminal Fv)
On to B1, for which the binding result in the assay with CD137 was “binds”.

B2: Ly1967 (other)
chain 1: QVQLQQSGAELVRPGSSVKISCKASGYAFSSYWMNWVKQRPGQGLEWIGQIWPGDGDTNYNGKFKGKATLTADESSSTAYMQLSSLASEDSAVYFCARRETTTVGRYYYAMDYWGQGTTVTVSSASTKGPSVFPLAPSSKSTSGGTAALGCLVKDYFPEPVTVSWNSGALTSGVHTFPAVLQSSGLYSLSSVVTVPSSSLGTQTYICNVNHKPSNTKVDKKVEPKSCGGGGSGGGGSGGGGSGGGGSEVQLVESGGGLVQPGGSLRLSCAASGFTFSTYAMNWVRQAPGKGLEWVGRIRSKYNNYATYYADSVKGRFTISRDDSKNSLYLQMNSLKTEDTAVYYCVRHGNFGNSYVSWFAYWGQGTLVTVSSGGGGSDKTHTCPPCPAPEAAGPSVFLFPPKPKDTLMISRTPEVTCVVVDVSHEDPEVKFNWYVDGVEVHNAKTKPREEQYNSTYRVVSVLTVLHQDWLNGKEYKCKVSNKALPAPIEKTISKAKGQPREPQVYTLPPSREEMTKNQVSLWCLVKGFYPSDIAVEWESNGQPENNYKTTPPVLDSDGSFFLYSKLTVDKSRWQQGNVFSCSVMHEALHNHYTQKSLSLSPGGGGGSGGGGSGGGGSGGGGSQVQLVQSGAEVKKPGASVKVSCKASGYTFAGFEMHWVRQAPGQGLEWMGAIDPKTGGTDYNQKFKDRVTMTRDTSISTAYMELSRLRSDDTAVYYCARDLGYFDVWGQGTLVTVSS
chain 2: QVQLQQSGAELVRPGSSVKISCKASGYAFSSYWMNWVKQRPGQGLEWIGQIWPGDGDTNYNGKFKGKATLTADESSSTAYMQLSSLASEDSAVYFCARRETTTVGRYYYAMDYWGQGTTVTVSSASTKGPSVFPLAPSSKSTSGGTAALGCLVKDYFPEPVTVSWNSGALTSGVHTFPAVLQSSGLYSLSSVVTVPSSSLGTQTYICNVNHKPSNTKVDKKVEPKSCGGGGSGGGGSGGGGSGGGGSQAVVTQEPSLTVSPGGTVTLTCRSSTGAVTTSNYANWVQQKPGQAPRGLIGGTNKRAPWTPARFSGSLLGGKAALTITGAQAEDEADYYCALWYSNLWVFGGGTKLTVLGGGGSDKTHTCPPCPAPEAAGPSVFLFPPKPKDTLMISRTPEVTCVVVDVSHEDPEVKFNWYVDGVEVHNAKTKPREEQYNSTYRVVSVLTVLHQDWLNGKEYKCKVSNKALPAPIEKTISKAKGQPREPQVYTLPPSREEMTKNQVSLSCAVKGFYPSDIAVEWESNGQPENNYKTTPPVLDSDGSFFLVSKLTVDKSRWQQGNVFSCSVMHEALHNHYTQKSLSLSPGGGGGSGGGGSGGGGSGGGGSDIQMTQSPSSLSASVGDRVTITCRASQDIRSNLNWYQQKPGGAVKLLIYYTSRLHSGVPSRFSGSGSGTDYTLTISSLQPEDFATYFCQQSEKLPRTFGGGTKVEIR
light: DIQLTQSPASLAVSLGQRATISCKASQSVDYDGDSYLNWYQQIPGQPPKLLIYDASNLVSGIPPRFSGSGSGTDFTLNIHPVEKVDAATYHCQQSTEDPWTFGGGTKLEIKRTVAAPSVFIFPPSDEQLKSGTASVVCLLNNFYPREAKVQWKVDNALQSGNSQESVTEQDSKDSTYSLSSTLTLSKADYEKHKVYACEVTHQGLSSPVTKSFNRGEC
notes: as for B1
B2: the binding result with CD137 was “binds”.

B3: Ly2326 (bispecific antibody, human IgG1, kappa)
chain 1: QVQLQQSGAELVRPGSSVKISCKASGYAFSSYWMNWVKQRPGQGLEWIGQIWPGDGDTNYNGKFKGKATLTADESSSTAYMQLSSLASEDSAVYFCARRETTTVGRYYYAMDYWGQGTTVTVSSASTKGPSVFPLAPSSKSTSGGTAALGCLVKDYFPEPVTVSWNSGALTSGVHTFPAVLQSSGLYSLSSVVTVPSSSLGTQTYICNVNHKPSNTKVDKKVEPKSCDKTHTCPPCPAPEAAGPSVFLFPPKPKDTLMISRTPEVTCVVVDVSHEDPEVKFNWYVDGVEVHNAKTKPREEQYNSTYRVVSVLTVLHQDWLNGKEYKCKVSNKALPAPIEKTISKAKGQPREPQVYTLPPSREEMTKNQVSLWCLVKGFYPSDIAVEWESNGQPENNYKTTPPVLDSDGSFFLYSKLTVDKSRWQQGNVFSCSVMHEALHNHYTQKSLSLSPGGGGGSGGGGSGGGGSGGGGSQVQLVQSGAEVKKPGASVKVSCKASGYTFAGFEMHWVRQAPGQGLEWMGAIDPKTGGTDYNQKFKDRVTMTRDTSISTAYMELSRLRSDDTAVYYCARDLGYFDVWGQGTLVTVSS
chain 2: QVQLQQSGAELVRPGSSVKISCKASGYAFSSYWMNWVKQRPGQGLEWIGQIWPGDGDTNYNGKFKGKATLTADESSSTAYMQLSSLASEDSAVYFCARRETTTVGRYYYAMDYWGQGTTVTVSSASTKGPSVFPLAPSSKSTSGGTAALGCLVKDYFPEPVTVSWNSGALTSGVHTFPAVLQSSGLYSLSSVVTVPSSSLGTQTYICNVNHKPSNTKVDKKVEPKSCDKTHTCPPCPAPEAAGPSVFLFPPKPKDTLMISRTPEVTCVVVDVSHEDPEVKFNWYVDGVEVHNAKTKPREEQYNSTYRVVSVLTVLHQDWLNGKEYKCKVSNKALPAPIEKTISKAKGQPREPQVYTLPPSREEMTKNQVSLSCAVKGFYPSDIAVEWESNGQPENNYKTTPPVLDSDGSFFLVSKLTVDKSRWQQGNVFSCSVMHEALHNRFTQKSLSLSPGGGGGSGGGGSGGGGSGGGGSDIQMTQSPSSLSASVGDRVTITCRASQDIRSNLNWYQQKPGGAVKLLIYYTSRLHSGVPSRFSGSGSGTDYTLTISSLQPEDFATYFCQQSEKLPRTFGGGTKVEIR
light: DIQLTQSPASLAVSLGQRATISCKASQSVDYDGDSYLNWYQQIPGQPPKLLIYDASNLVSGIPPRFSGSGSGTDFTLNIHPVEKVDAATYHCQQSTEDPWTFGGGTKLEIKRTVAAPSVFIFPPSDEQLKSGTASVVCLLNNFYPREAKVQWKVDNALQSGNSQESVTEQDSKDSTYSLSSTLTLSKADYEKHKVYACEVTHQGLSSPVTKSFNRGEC
notes: Bispecific CD19 (two Fabs) / CD137 (terminal Fv)
With B3, the binding result in the assay with CD19 and with CD137 was “binds” in each case.
